We go through 15 molecules from patent US20190071490A1, “Preventing Post-Ictal Headaches” (Beth Israel Deaconess Medical Center, Inc., priority 2017, published 2019).

One experiment deals with T1, human α-CGRP (Homo sapiens, UniProt P06881).
T1 construct: 1-37 (WT); purchased GenScript Corporation or Global Peptide Services
T1 sequence (P06881 83-119 limits assumed): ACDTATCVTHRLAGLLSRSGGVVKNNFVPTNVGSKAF
The experiment can be described thus: Biacore SPR affinity of Fab fragments to N-biotinylated human α-CGRP on SA chip. As to conditions: 37° C., screening mode except underlined values. The experiment is classed as binding. Put shortly:
(§1)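 HBS-EP pH 7.4 running buffer at 25° C. or 37° C.; N-biotinylated CGRP captured on streptavidin SA chip (<50 RU for kinetics), Fab titrated over surface with regeneration by 25 mM NaOH/25% ethanol. Titrations globally fit to 1:1 Langmuir model; KD=koff/kon, with 2-hour dissociation for very slow off-rates.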
In general terms: Surface plasmon resonance follows binding to a sensor surface in real time, without labels.

The target in the next experiment is T2, rat α-CGRP (Rattus norvegicus, UniProt P01256).
T2 construct: rat α (1-37); purchased GenScript Corporation or Global Peptide Services
T2 sequence (P01256 83-119 limits assumed): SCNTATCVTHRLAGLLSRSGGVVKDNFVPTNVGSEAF
The experiment can be described thus: Biacore SPR affinity of Fab fragments to N-biotinylated rat α-CGRP on SA chip. As to conditions: 37° C., screening mode except underlined values. Format: binding. The method, boiled down: as §1

B1: M21: G1 variant; L1 R28W; HC-FW3 L99S (antibody, V domains shown)
VH: EVQLVESGGGLVQPGGSLRLSCAASGFTFSNYWISWVRQAPGKGLEWVAEIRSESDASATHYAEAVKGRFTISRDNAKNSLYLQMNSLRAEDTAVYYCSAYFDYGLAIQNYWGQGTLVTVSS
VL: EIVLTQSPATLSLSPGERATLSCKASKWVTTYVSWYQQKPGQAPRLLIYGASNRYLGIPARFSGSGSGTDFTLTISSLEPEDFAVYYCSQSYNYPYTFGQGTKLEIK
Regarding B1, the “α-human koff” value with human α-CGRP is 0.000142 s⁻¹. The “α-rat koff” value in the experiment with rat α-CGRP came out at 0.000695 s⁻¹.

B2: M23: G1 variant; L1 R28G; HC-FW3 L99T A100V (antibody, V domains shown)
VH: EVQLVESGGGLVQPGGSLRLSCAASGFTFSNYWISWVRQAPGKGLEWVAEIRSESDASATHYAEAVKGRFTISRDNAKNSLYLQMNSLRAEDTAVYYCTVYFDYGLAIQNYWGQGTLVTVSS
VL: EIVLTQSPATLSLSPGERATLSCKASKGVTTYVSWYQQKPGQAPRLLIYGASNRYLGIPARFSGSGSGTDFTLTISSLEPEDFAVYYCSQSYNYPYTFGQGTKLEIK
On to B2, for which the “α-human koff” value with human α-CGRP is 0.00013 s⁻¹. Further, the “α-rat koff” value in the experiment with rat α-CGRP was determined as 0.000799 s⁻¹.

B3: M26: G1 variant; L1 R28N; H2 A57G; HC-FW3 L99T A100V (antibody, V domains shown)
VH: EVQLVESGGGLVQPGGSLRLSCAASGFTFSNYWISWVRQAPGKGLEWVAEIRSESDGSATHYAEAVKGRFTISRDNAKNSLYLQMNSLRAEDTAVYYCTVYFDYGLAIQNYWGQGTLVTVSS
VL: EIVLTQSPATLSLSPGERATLSCKASKNVTTYVSWYQQKPGQAPRLLIYGASNRYLGIPARFSGSGSGTDFTLTISSLEPEDFAVYYCSQSYNYPYTFGQGTKLEIK
On to B3, for which the “α-human koff” value with human α-CGRP came to 0.000148 s⁻¹. Further, the “α-rat koff” value with rat α-CGRP stood at 0.000924 s⁻¹.

B4: M34: G1 variant; L1 R28N T30G; H2 E54K A57N S58T; HC-FW3 L99T A100V (antibody, V domains shown)
VH: EVQLVESGGGLVQPGGSLRLSCAASGFTFSNYWISWVRQAPGKGLEWVAEIRSKSDNTATHYAEAVKGRFTISRDNAKNSLYLQMNSLRAEDTAVYYCTVYFDYGLAIQNYWGQGTLVTVSS
VL: EIVLTQSPATLSLSPGERATLSCKASKNVGTYVSWYQQKPGQAPRLLIYGASNRYLGIPARFSGSGSGTDFTLTISSLEPEDFAVYYCSQSYNYPYTFGQGTKLEIK
B4: the “α-human koff” value in the experiment with human α-CGRP amounted to 0.000646 s⁻¹. Also, the “α-rat koff” value with rat α-CGRP turned out to be 0.00217 s⁻¹.

B5: M28: G1 variant; L1 R28N T30D; H2 E54R A57N; HC-FW3 L99T A100V (antibody, V domains shown)
VH: EVQLVESGGGLVQPGGSLRLSCAASGFTFSNYWISWVRQAPGKGLEWVAEIRSRSDNSATHYAEAVKGRFTISRDNAKNSLYLQMNSLRAEDTAVYYCTVYFDYGLAIQNYWGQGTLVTVSS
VL: EIVLTQSPATLSLSPGERATLSCKASKNVDTYVSWYQQKPGQAPRLLIYGASNRYLGIPARFSGSGSGTDFTLTISSLEPEDFAVYYCSQSYNYPYTFGQGTKLEIK
Take B5: in the experiment with human α-CGRP, the “α-human koff” value was 9.96e-05 s⁻¹. For the same molecule, the “α-rat koff” value with rat α-CGRP came out at 0.00125 s⁻¹.

B6: M36: G1 variant; L1 R28N T30R; HC-FW3 L99T A100V (antibody, V domains shown)
VH: EVQLVESGGGLVQPGGSLRLSCAASGFTFSNYWISWVRQAPGKGLEWVAEIRSESDASATHYAEAVKGRFTISRDNAKNSLYLQMNSLRAEDTAVYYCTVYFDYGLAIQNYWGQGTLVTVSS
VL: EIVLTQSPATLSLSPGERATLSCKASKNVRTYVSWYQQKPGQAPRLLIYGASNRYLGIPARFSGSGSGTDFTLTISSLEPEDFAVYYCSQSYNYPYTFGQGTKLEIK
For B6, the “α-human koff” value with human α-CGRP worked out at 0.000239 s⁻¹. For the same molecule, in the experiment with rat α-CGRP, the “α-rat koff” value amounted to 0.00479 s⁻¹.

B7: M33: G1 variant; L1 R28N T30G; H2 E54K A57N S58G; HC-FW3 L99T A100V (antibody, V domains shown)
VH: EVQLVESGGGLVQPGGSLRLSCAASGFTFSNYWISWVRQAPGKGLEWVAEIRSKSDNGATHYAEAVKGRFTISRDNAKNSLYLQMNSLRAEDTAVYYCTVYFDYGLAIQNYWGQGTLVTVSS
VL: EIVLTQSPATLSLSPGERATLSCKASKNVGTYVSWYQQKPGQAPRLLIYGASNRYLGIPARFSGSGSGTDFTLTISSLEPEDFAVYYCSQSYNYPYTFGQGTKLEIK
As to B7, in the experiment with human α-CGRP, the “α-human koff” value was 0.00075 s⁻¹. In addition, in the experiment with rat α-CGRP, the “α-rat koff” value was found to be 0.00922 s⁻¹.

B8: M32: G1 variant; L1 R28N T30G; H2 E54K A57H; HC-FW3 L99T A100V (antibody, V domains shown)
VH: EVQLVESGGGLVQPGGSLRLSCAASGFTFSNYWISWVRQAPGKGLEWVAEIRSKSDHSATHYAEAVKGRFTISRDNAKNSLYLQMNSLRAEDTAVYYCTVYFDYGLAIQNYWGQGTLVTVSS
VL: EIVLTQSPATLSLSPGERATLSCKASKNVGTYVSWYQQKPGQAPRLLIYGASNRYLGIPARFSGSGSGTDFTLTISSLEPEDFAVYYCSQSYNYPYTFGQGTKLEIK
B8: the “α-human koff” value in the experiment with human α-CGRP came out at 0.000271 s⁻¹. Further, the “α-rat koff” value in the experiment with rat α-CGRP came out at 0.00296 s⁻¹.

B9: M27: G1 variant; L1 R28N T30A; HC-FW3 L99T A100V (antibody, V domains shown)
VH: EVQLVESGGGLVQPGGSLRLSCAASGFTFSNYWISWVRQAPGKGLEWVAEIRSESDASATHYAEAVKGRFTISRDNAKNSLYLQMNSLRAEDTAVYYCTVYFDYGLAIQNYWGQGTLVTVSS
VL: EIVLTQSPATLSLSPGERATLSCKASKNVATYVSWYQQKPGQAPRLLIYGASNRYLGIPARFSGSGSGTDFTLTISSLEPEDFAVYYCSQSYNYPYTFGQGTKLEIK
For the molecule B9, in the experiment with human α-CGRP, the “α-human koff” value was 0.000357 s⁻¹. Further, the “α-rat koff” value with rat α-CGRP amounted to 0.00341 s⁻¹.

B10: M30: G1 variant; L1 R28N T30G; H2 E54K A57E; HC-FW3 L99T A100V (antibody, V domains shown)
VH: EVQLVESGGGLVQPGGSLRLSCAASGFTFSNYWISWVRQAPGKGLEWVAEIRSKSDESATHYAEAVKGRFTISRDNAKNSLYLQMNSLRAEDTAVYYCTVYFDYGLAIQNYWGQGTLVTVSS
VL: EIVLTQSPATLSLSPGERATLSCKASKNVGTYVSWYQQKPGQAPRLLIYGASNRYLGIPARFSGSGSGTDFTLTISSLEPEDFAVYYCSQSYNYPYTFGQGTKLEIK
Take B10: the “α-human koff” value with human α-CGRP was 0.00059 s⁻¹. Also, in the experiment with rat α-CGRP, the “α-rat koff” value amounted to 0.00638 s⁻¹.

B11: M35: G1 variant; L1 R28N T30G; H2 E54K A57S; HC-FW3 L99T A100V (antibody, V domains shown)
VH: EVQLVESGGGLVQPGGSLRLSCAASGFTFSNYWISWVRQAPGKGLEWVAEIRSKSDSSATHYAEAVKGRFTISRDNAKNSLYLQMNSLRAEDTAVYYCTVYFDYGLAIQNYWGQGTLVTVSS
VL: EIVLTQSPATLSLSPGERATLSCKASKNVGTYVSWYQQKPGQAPRLLIYGASNRYLGIPARFSGSGSGTDFTLTISSLEPEDFAVYYCSQSYNYPYTFGQGTKLEIK
Turning to B11, the “α-human koff” value with human α-CGRP is 0.000339 s⁻¹. For the same molecule, the “α-rat koff” value with rat α-CGRP is 0.00399 s⁻¹.

B12: M22: G1 variant; L1 R28W; HC-FW3 L99T (antibody, V domains shown)
VH: EVQLVESGGGLVQPGGSLRLSCAASGFTFSNYWISWVRQAPGKGLEWVAEIRSESDASATHYAEAVKGRFTISRDNAKNSLYLQMNSLRAEDTAVYYCTAYFDYGLAIQNYWGQGTLVTVSS
VL: EIVLTQSPATLSLSPGERATLSCKASKWVTTYVSWYQQKPGQAPRLLIYGASNRYLGIPARFSGSGSGTDFTLTISSLEPEDFAVYYCSQSYNYPYTFGQGTKLEIK
Take B12: in the experiment with human α-CGRP, the “α-human koff” value stood at 0.000116 s⁻¹. Moreover, the “α-rat koff” value with rat α-CGRP was 0.0011 s⁻¹.

B13: M29: G1 variant; L1 R28N T30G; HC-FW3 L99T A100V (antibody, V domains shown)
VH: EVQLVESGGGLVQPGGSLRLSCAASGFTFSNYWISWVRQAPGKGLEWVAEIRSESDASATHYAEAVKGRFTISRDNAKNSLYLQMNSLRAEDTAVYYCTVYFDYGLAIQNYWGQGTLVTVSS
VL: EIVLTQSPATLSLSPGERATLSCKASKNVGTYVSWYQQKPGQAPRLLIYGASNRYLGIPARFSGSGSGTDFTLTISSLEPEDFAVYYCSQSYNYPYTFGQGTKLEIK
For the molecule B13, the “α-human koff” value in the experiment with human α-CGRP was found to be 0.00038 s⁻¹. Moreover, the “α-rat koff” value in the experiment with rat α-CGRP was 0.00359 s⁻¹.

B14: M31: G1 variant; L1 R28N T30G; H2 E54K A57G; HC-FW3 L99T A100V (antibody, V domains shown)
VH: EVQLVESGGGLVQPGGSLRLSCAASGFTFSNYWISWVRQAPGKGLEWVAEIRSKSDGSATHYAEAVKGRFTISRDNAKNSLYLQMNSLRAEDTAVYYCTVYFDYGLAIQNYWGQGTLVTVSS
VL: EIVLTQSPATLSLSPGERATLSCKASKNVGTYVSWYQQKPGQAPRLLIYGASNRYLGIPARFSGSGSGTDFTLTISSLEPEDFAVYYCSQSYNYPYTFGQGTKLEIK
Turning to B14, the “α-human koff” value with human α-CGRP was 0.000347 s⁻¹. Besides, in the experiment with rat α-CGRP, the “α-rat koff” value was 0.00361 s⁻¹.

B15: M24: G1 variant; L1 R28L; HC-FW3 L99T A100V (antibody, V domains shown)
VH: EVQLVESGGGLVQPGGSLRLSCAASGFTFSNYWISWVRQAPGKGLEWVAEIRSESDASATHYAEAVKGRFTISRDNAKNSLYLQMNSLRAEDTAVYYCTVYFDYGLAIQNYWGQGTLVTVSS
VL: EIVLTQSPATLSLSPGERATLSCKASKLVTTYVSWYQQKPGQAPRLLIYGASNRYLGIPARFSGSGSGTDFTLTISSLEPEDFAVYYCSQSYNYPYTFGQGTKLEIK
As to B15, in the experiment with human α-CGRP, the “α-human koff” value came out at 0.000148 s⁻¹. Moreover, in the experiment with rat α-CGRP, the “α-rat koff” value turned out to be 0.00104 s⁻¹.
